Laboratory results: publication PMC11880193 (Nature Communications, 2025)

Molecular target: the molecule itself
Experiment: SEC

Row | Protein | stoichiometry N | binding result
1 | CODANIN-1 F581E/E652A (LOBE2 dimer interface mutant) (natural protein) MAAVLESLLREEVSVAAVVRWIARSTQGSEDNAGEAAALSSLRALRKEFVPFLLNFLREQSSRVLPQGPPTPAKTPGASAALPGRPGGPPRGSRGARSQLFPPTEAQSTAAEAPLARRGGRRRGPGPARERGGRGLEEGVSGESLPGAGGRRLRGSGSPSRPSLTLSDPPNLSNLEEFPPVGSVPPGPTGTKPSRRINPTPVSEERSLSKPKTCFTSPPISCVPSSQPSALDTSPWGLGLPPGCRSLQEEREMLRKERSKQLQQSPTPTCPTPELGSPLPSRTGSLTDEPADPARVSSRQRLELVALVYSSCIAENLVPNLFLELFFVFQLLTARRMVTAKDSDPELSPAVLDSLESPLFQSIHDCVFFAVQVLECHFQVLSNLDKGTLKLLAENERLLCFSPALQGRLRAAYEGSVAKVSLVMPPSTQAVSFQPETDNRANFSSDRAFHTFKKQRDVFYEVLREWEDHHEEPGWDFEKGLGSRIRAMMGQLSAACSHSHFVRLFQKQLLQMCQSPGGAGGTVLGEAPDVLSMLGADKLGRLWRLQERLMAPQSSGGPCPPPTFPGCQGFFRDFILSASSEQFNQHLMDSLSLKIQELNGLALPQHEPNDEDGESDVDWQGERKQFAVVLLSLRLLAKFLGFVAFLPYRGPAPPPTGELQDSILALRSQVPPVLDVRTLLQRGLQARRAVLTVPWLVEFLSFADHVVPLLEYYRDIFTLLLRLHRSLVLSQESEGKMCFLNKLLLLAVLGWLFQIPTVPEDLFFLEEGPSYAFEVDTVAPEHGLDNAPVVDQQLLYTCCPYIGELRKLLASWVSGSSGRSGGFMRKITPTTTTSLGAQPSQTSQGLQAQLAQAFFHNQPPSLRRTVEFVAERIGSNCVKHIKATLVADLVRQAESLLQEQLVTQGEEGGDPAQLLEILCSQLCPHGAQALALGREFCQRKSPGAVRALLPEETPAAVLSSAENIAVGLATEKACAWLSANITALIRREVKAAVSRTLRAQGPEPAARGERRGCSRACEHHAPLPSHLISEIKDVLSLAVGPRDPDEGVSPEHLEQLLGQLGQTLRCRQFLCPPAEQHLAKCSVELASLLVADQIPILGPPAQYRLERGQARRLLHMLLSLWKEDFQGPVPLQLLLSPRNVGLLADTRPREWDLLLFLLRELVEKGLMGRMEIEACLGSLHQAQWPGDFAEELATLSNLFLAEPHLPEPQLRACELVQPNRGTVLAQS | 2 | 
2 | CODANIN-1 P672L (CDA-I disease mutation) (natural protein) MAAVLESLLREEVSVAAVVRWIARSTQGSEDNAGEAAALSSLRALRKEFVPFLLNFLREQSSRVLPQGPPTPAKTPGASAALPGRPGGPPRGSRGARSQLFPPTEAQSTAAEAPLARRGGRRRGPGPARERGGRGLEEGVSGESLPGAGGRRLRGSGSPSRPSLTLSDPPNLSNLEEFPPVGSVPPGPTGTKPSRRINPTPVSEERSLSKPKTCFTSPPISCVPSSQPSALDTSPWGLGLPPGCRSLQEEREMLRKERSKQLQQSPTPTCPTPELGSPLPSRTGSLTDEPADPARVSSRQRLELVALVYSSCIAENLVPNLFLELFFVFQLLTARRMVTAKDSDPELSPAVLDSLESPLFQSIHDCVFFAVQVLECHFQVLSNLDKGTLKLLAENERLLCFSPALQGRLRAAYEGSVAKVSLVMPPSTQAVSFQPETDNRANFSSDRAFHTFKKQRDVFYEVLREWEDHHEEPGWDFEKGLGSRIRAMMGQLSAACSHSHFVRLFQKQLLQMCQSPGGAGGTVLGEAPDVLSMLGADKLGRLWRLQERLMAPQSSGGPCPPPTFPGCQGFFRDFILSASSFQFNQHLMDSLSLKIQELNGLALPQHEPNDEDGESDVDWQGERKQFAVVLLSLRLLAKFLGFVAFLPYRGPEPPPTGELQDSILALRSQVPLVLDVRTLLQRGLQARRAVLTVPWLVEFLSFADHVVPLLEYYRDIFTLLLRLHRSLVLSQESEGKMCFLNKLLLLAVLGWLFQIPTVPEDLFFLEEGPSYAFEVDTVAPEHGLDNAPVVDQQLLYTCCPYIGELRKLLASWVSGSSGRSGGFMRKITPTTTTSLGAQPSQTSQGLQAQLAQAFFHNQPPSLRRTVEFVAERIGSNCVKHIKATLVADLVRQAESLLQEQLVTQGEEGGDPAQLLEILCSQLCPHGAQALALGREFCQRKSPGAVRALLPEETPAAVLSSAENIAVGLATEKACAWLSANITALIRREVKAAVSRTLRAQGPEPAARGERRGCSRACEHHAPLPSHLISEIKDVLSLAVGPRDPDEGVSPEHLEQLLGQLGQTLRCRQFLCPPAEQHLAKCSVELASLLVADQIPILGPPAQYRLERGQARRLLHMLLSLWKEDFQGPVPLQLLLSPRNVGLLADTRPREWDLLLFLLRELVEKGLMGRMEIEACLGSLHQAQWPGDFAEELATLSNLFLAEPHLPEPQLRACELVQPNRGTVLAQS | 2 | 
3 | CODANIN-1 F868I/E871R (C-terminal coiled-coil mutant) (natural protein) MAAVLESLLREEVSVAAVVRWIARSTQGSEDNAGEAAALSSLRALRKEFVPFLLNFLREQSSRVLPQGPPTPAKTPGASAALPGRPGGPPRGSRGARSQLFPPTEAQSTAAEAPLARRGGRRRGPGPARERGGRGLEEGVSGESLPGAGGRRLRGSGSPSRPSLTLSDPPNLSNLEEFPPVGSVPPGPTGTKPSRRINPTPVSEERSLSKPKTCFTSPPISCVPSSQPSALDTSPWGLGLPPGCRSLQEEREMLRKERSKQLQQSPTPTCPTPELGSPLPSRTGSLTDEPADPARVSSRQRLELVALVYSSCIAENLVPNLFLELFFVFQLLTARRMVTAKDSDPELSPAVLDSLESPLFQSIHDCVFFAVQVLECHFQVLSNLDKGTLKLLAENERLLCFSPALQGRLRAAYEGSVAKVSLVMPPSTQAVSFQPETDNRANFSSDRAFHTFKKQRDVFYEVLREWEDHHEEPGWDFEKGLGSRIRAMMGQLSAACSHSHFVRLFQKQLLQMCQSPGGAGGTVLGEAPDVLSMLGADKLGRLWRLQERLMAPQSSGGPCPPPTFPGCQGFFRDFILSASSFQFNQHLMDSLSLKIQELNGLALPQHEPNDEDGESDVDWQGERKQFAVVLLSLRLLAKFLGFVAFLPYRGPEPPPTGELQDSILALRSQVPPVLDVRTLLQRGLQARRAVLTVPWLVEFLSFADHVVPLLEYYRDIFTLLLRLHRSLVLSQESEGKMCFLNKLLLLAVLGWLFQIPTVPEDLFFLEEGPSYAFEVDTVAPEHGLDNAPVVDQQLLYTCCPYIGELRKLLASWVSGSSGRSGGFMRKITPTTTTSLGAQPSQTSQGLQAQLAQAFFHNQPPSLRRTVEIVARRIGSNCVKHIKATLVADLVRQAESLLQEQLVTQGEEGGDPAQLLEILCSQLCPHGAQALALGREFCQRKSPGAVRALLPEETPAAVLSSAENIAVGLATEKACAWLSANITALIRREVKAAVSRTLRAQGPEPAARGERRGCSRACEHHAPLPSHLISEIKDVLSLAVGPRDPDEGVSPEHLEQLLGQLGQTLRCRQFLCPPAEQHLAKCSVELASLLVADQIPILGPPAQYRLERGQARRLLHMLLSLWKEDFQGPVPLQLLLSPRNVGLLADTRPREWDLLLFLLRELVEKGLMGRMEIEACLGSLHQAQWPGDFAEELATLSNLFLAEPHLPEPQLRACELVQPNRGTVLAQS |  | binds
